The target in the assay is synthetic IAPP, used as monomer and as sonicated preformed fibrils (seeds) (UniProt P10997).

Chain of synthetic IAPP, used as monomer and as sonicated preformed fibrils (seeds) (from UniProt P10997 34-70) (peptide) (P10997 34-70): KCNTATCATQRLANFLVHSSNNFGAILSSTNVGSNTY

“synthetic IAPP, used as monomer and as sonicated preformed fibrils (seeds) (from UniProt P10997 34-70) (peptide)” yielded a lag phase of ThT fibril formation of 2.5 µM monomeric IAPP after adding IAPP seeds corresponding to 100 nM monomeric peptide (240 min without seeds); PBS pH 7.4, 37°C of 20 min.

The record behind these values is article PMC9922763.
